B1: LINE1-full (parent)
chain: UACGUAGGUGGUUUUCCCCUGAUAGUGCUAAGGGGGCCUGGAAGUUUGGACUGGGCAGAGCUCAACACAGCGUGGCAAAGUGGCUGUGGCUAGACUGCCUCUCUGGAUUCCUCGUCACUCAGCAGGGCAUCUCUGAGAGAAAUGCC

Variants of B1 are the subject of this series. As to the kind of experiment: self-cleavage, relative activity (ratio to wild type); higher = more cleavage; in vitro, sequencing; the parent is a self-cleaving ribozyme.
As for UACGUAGGUGGUUUUCCCCUGAUAGUGCUAAGGGGGCCUGGAAGUUUGGACCGGGCAGAGCUCAACACAGCGUGGCAAAGUGGCUGUGGCUAGACUGCCUCUCUGGAUUCCUCGUCACUCAGCAUGGCAUCUCUGAGAGAAAUGCC [U52C G125U], the self-cleavage turned out to be 1.15.
The result for UACGUAGGUGGUUUUCCCCUGAUAGUGCUAAGGGGGCCUGGAAGUUUGGACCGGGCAGAGCUCAACACAGCGUGGCAAAGUGGCUGUGGCUAGACUGCCUCUCUGGAUUCCUCGUCACUCAGCAGGGCAUCUCUGAGUGAAAUGCC [U52C A138U] reads 1.5; that for UACGUAGGUGGUUUUCCCCUGAUAGUGCUAAGGGGGCCUGGAAGUUUGGACCGGGCAGAGCUCAACACAGCGUGGCAAAGUGGCUGUGGCUAGACUGCCUCUCUGGAUUCCUCGUCACUCAGCAGGGCAUCUCUGAGGGAAAUGCC [U52C A138G], 1.48; that for UACGUAGGUGGUUUUCCCCUGAUAGUGCUAAGGGGGCCUGGAAGUUUGGACCGGGCAGAGCUCAACACAGCGUGGCAAAGUGGCUGUGGCUAGACUGCCUCUCUGGAUUCCUCGUCACUCUGCAGGGCAUCUCUGAGAGAAAUGCC [U52C A121U], 1.5.
To UACGUAGGUGGUUUUCCCCUGAUAGUGCUAAGGGGGCCUGGAAGUUUGGACCGGGCAGAGCUCAACACAGCGUGGCAAAGUGGCUGUGGCUAGACUGCCUCUCUGGAUUCCUCGUCACUCAGCUGGGCAUCUCUGAGAGAAAUGCC [U52C A124U] belongs 1.48; to UACGUAGGUGGUUUUCCCCUGAUAGUGCUAAGGGGGCCUGGAAGUUUGGACCGGGCAGAGCUCAACACAGCGUGGCAAAGUGGCUGUGGCUAGACUGCCUCUCUGGAUUCCUCGUCACUCAGCGGGGCAUCUCUGAGAGAAAUGCC [U52C A124G], 0.48.
As for UACGUAGGUGGUUUUCCCCUGAUAGUGCUAAGGGGGCCUGGAAGUUUGGACCGGGCAGAGCUCAACACAGAGUGGCAAAGUGGCUGUGGCUAGACUGCCUCUCUGGAUUCCUCGUCACUCAGCAGGGCAUCUCUGAGAGAAAUGCC [U52C C71A], the self-cleavage is 0.13.
For the variant UACGUAGGUGGUUUUCCCCUGAUAGUGCUAAGGGGGCCUGGAAGUUUGGACCGGGCAGAGCUCAACACAGCGUGGCAAAGUGGCUGUGGCUAGACUGCCUCUCUGGAUUCCUUGUCACUCAGCAGGGCAUCUCUGAGAGAAAUGCC [U52C C113U], the self-cleavage was 0.99.
UACGUAGGUGGUUUUCCCCUGAUAGUGCUAAGGGGGCCUGGAAGUUUGGACCGGGCAGAGCUCAACACAGCGUGGCAAAGUGGCUGUGGCUAGACUGCCUCUCUGGAUUCCUCGUCACUCAGCAGGGCAUCUCUGAGAGAAAUGCU [U52C C146U]: the self-cleavage was 2.19.
The result for UACGUAGGUGGUUUUCCCCUGAUAGUGCUAAGGGGGCCUGGAAGUUUGGACCGGGCAGAGCUCAACACAGCGUGGCAAAGUGGCUGUGGCUAGACUGCCUCUCUGGAUUCCUCGUCACUCAGCAGGGCUUCUCUGAGAGAAAUGCC [U52C A129U] reads 1.61; that for UACGUAGGUGGUUUUCCCCUGAUAGUGCUAAGGGGGCCUGGAAGUUUGGACCUGGCAGAGCUCAACACAGCGUGGCAAAGUGGCUGUGGCUAGACUGCCUCUCUGGAUUCCUCGUCACUCAGCAGGGCAUCUCUGAGAGAAAUGCC [U52C G53U], 1.6.
Turning to UACGUAGGUGGUUUUCCCCUGAUAGUGCUAAGGGGGCCUGGAAGUUUGGACCGGGCAGAGCUCAACACAGCUUGGCAAAGUGGCUGUGGCUAGACUGCCUCUCUGGAUUCCUCGUCACUCAGCAGGGCAUCUCUGAGAGAAAUGCC [U52C G72U], the self-cleavage worked out at 0.41.
The result for UACGUAGGUGGUUUUCCCCUGAUAGUGCUAAGGGGGCCUGGAAGUUUGGACCGGGCAGAGCUCAACACAGCGUGGCAAAGUGGCUGUGGCUAGACUGCCUCUCUGGAUUCCUCGUCACUCAGCAGGGCAUCUCUGAGAGAAGUGCC [U52C A142G] reads 1.02.
To UACGUAGGUGGUUUUCCCCUGAUAGUGCUAAGGGGGCCUGGAAGUUUGGACCGGGCAUAGCUCAACACAGCGUGGCAAAGUGGCUGUGGCUAGACUGCCUCUCUGGAUUCCUCGUCACUCAGCAGGGCAUCUCUGAGAGAAAUGCC [U52C G58U] belongs 0.04.
Turning to UACGUAGGUGGUUUUCCCCUGAUAGUGCUAAGGGGGCCUGGAAGUUUGGACCGGGCAGAGCUCAACACAGCGUGGCAAAGUGGCUGUGGCUAGACUGCCUCUCUGGAUUCCUCGUCGCUCAGCAGGGCAUCUCUGAGAGAAAUGCC [U52C A117G], the self-cleavage came to 1.04.
On to UACGUAGGUGGUUUUCCCCUGAUAGUGCUAAGGGGGCCUGGAAGUUUGGACCGGGCAGAGCUCAACACAGCGUGGCAAAGUGGCUGUGGCUAGACUGCCUCUCUGGAUUCCUCGUCCCUCAGCAGGGCAUCUCUGAGAGAAAUGCC [U52C A117C], for which the self-cleavage was determined as 0.42.
Turning to UACGUAGGUGGUUUUCCCCUGAUAGUGCUAAGGGGGCCUGGAAGUUUGGACCGGACAGAGCUCAACACAGCGUGGCAAAGUGGCUGUGGCUAGACUGCCUCUCUGGAUUCCUCGUCACUCAGCAGGGCAUCUCUGAGAGAAAUGCC [U52C G55A], the self-cleavage came to 0.14.
For the variant UACGUAGGUGGUUUUCCCCUGAUAGUGCUAAGGGGGCCUGGAAGUUUGGACCGGGCAGAGCUCAACACAGCGUGGCAAAAUGGCUGUGGCUAGACUGCCUCUCUGGAUUCCUCGUCACUCAGCAGGGCAUCUCUGAGAGAAAUGCC [U52C G80A], the self-cleavage came to 1.82.
To UACGUAGGUGGUUUUCCCCUGAUAGUGCUAAGGGGGCCUGGAAGUUUGGACCGGGCAGAGCUCAACACAGCGUGGCAAAGUGGCUGUGGCUAGACUGCCUCUCUGGAUUCCUCGUCACUCAGCAGGGAAUCUCUGAGAGAAAUGCC [U52C C128A] belongs 0.71; to UACGUAGGUGGUUUUCCCCUGAUAGUGCUAAGGGGGCCUGGAAGUUUGGACCGGGCAGAGCUCAACACAGCGUGGCAGAGUGGCUGUGGCUAGACUGCCUCUCUGGAUUCCUCGUCACUCAGCAGGGCAUCUCUGAGAGAAAUGCC [U52C A78G], 1.
The result for UACGUAGGUGGUUUUCCCCUGAUAGUGCUAAGGGGGCCUGGAAGUUUGGACCGGGCAGAGCUCAACACAGCGUGGCAAAGUGGCUGUGGCUAGACUGCCUCUCUGGAUUCCUCGUCACUCAGCAGGGCAUCUCUGUGAGAAAUGCC [U52C A136U] reads 0.81.
For UACGUAGGUGGUUUUCCCCUGAUAGUGCUAAGGGGGCCUGGAAGUUUGGACCGGGCAGAGCUCAACACAGCGUGGCAAAGUGGCUGUGGCUAGACUGCCUCUCUGGAUUCCUCGUCACUCAGCAGGGCAUCUCUGGGAGAAAUGCC [U52C A136G], the self-cleavage was 2.9.
To UACGUAGGUGGUUUUCCCCUGAUAGUGCUAAGGGGGCCUGGAAGUUUGGACCGGGCAGAGCUCAACACAGCGUGGCAAGGUGGCUGUGGCUAGACUGCCUCUCUGGAUUCCUCGUCACUCAGCAGGGCAUCUCUGAGAGAAAUGCC [U52C A79G] belongs 0.75; to UACGUAGGUGGUUUUCCCCUGAUAGUGCUAAGGGGGCCUGGAAGUUUGGACCGGGCAGAGCUCAACACAGCGUGGCAAAGUAGCUGUGGCUAGACUGCCUCUCUGGAUUCCUCGUCACUCAGCAGGGCAUCUCUGAGAGAAAUGCC [U52C G82A], 1.7; to UACGUAGGUGGUUUUCCCCUGAUAGUGCUAAGGGGGCCUGGAAGUUUGGACCGGGCAGAGCUCAACACAGCGUGGCAAAGUGGCUGUGGCUAGACUGCCUCUCUGGAUUCCUCGUCACUCAGCAGGGCAUCUCUGAGAGAUAUGCC [U52C A141U], 1.14.
The result for UACGUAGGUGGUUUUCCCCUGAUAGUGCUAAGGGGGCCUGGAAGUUUGGACCGGGCAGAGCUCAACACAGCGUGGCAAAGUGGCUGUGGCUAGACUGCCUCUCUGGAUUCCUCGUCACUCAGCAGGGCAUCUCUGAGAGAGAUGCC [U52C A141G] reads 1.25.
The result for UACGUAGGUGGUUUUCCCCUGAUAGUGCUAAGGGGGCCUGGAAGUUUGGACCGGGCAGAGCUCAACACAGCGUGGCAAAGUGGCUGUGGCUAGACUGCCUCUCUGGAUUCAUCGUCACUCAGCAGGGCAUCUCUGAGAGAAAUGCC [U52C C111A] reads 1.14; that for UACGUAGGUGGUUUUCCCCUGAUAGUGCUAAGGGGGCCUGGAAGUUUGGACCGGGCAGAGCUCAACGCAGCGUGGCAAAGUGGCUGUGGCUAGACUGCCUCUCUGGAUUCCUCGUCACUCAGCAGGGCAUCUCUGAGAGAAAUGCC [U52C A67G], 0.61.
Turning to UACGUAGGUGGUUUUCCCCUGAUAGUGCUAAGGGGGCCUGGAAGUUUGGACCGGGCAGAGCUCAGCACAGCGUGGCAAAGUGGCUGUGGCUAGACUGCCUCUCUGGAUUCCUCGUCACUCAGCAGGGCAUCUCUGAGAGAAAUGCC [U52C A65G], the self-cleavage came to 0.07.
Regarding UACGUAGGUGGUUUUCCCCUGAUAGUGCUAAGGGGGCCUGGAAGUUUGGACCGGGCAGAGCUCAACACAGCGUGGCAAAGUGGUUGUGGCUAGACUGCCUCUCUGGAUUCCUCGUCACUCAGCAGGGCAUCUCUGAGAGAAAUGCC [U52C C84U], the self-cleavage amounted to 0.15.
To UACGUAGGUGGUUUUCCCCUGAUAGUGCUAAGGGGGCCUGGAAGUUUGGACCGGGCAGAGCUCAACACAGCGUGGCAAAGUGGCUGUGGCUAGACUGCCUCUCUGUAUUCCUCGUCACUCAGCAGGGCAUCUCUGAGAGAAAUGCC [U52C G106U] belongs 0.8; to UACGUAGGUGGUUUUCCCCUGAUAGUGCUAAGGGGGCCUGGAAGUUUGGACCGGGCAGAGCUCAACACAGCGUUGCAAAGUGGCUGUGGCUAGACUGCCUCUCUGGAUUCCUCGUCACUCAGCAGGGCAUCUCUGAGAGAAAUGCC [U52C G74U], 1.79; to UACGUAGGUGGUUUUCCCCUGAUAGUGCUAAGGGGGCCUGGAAGUUUGGACCGGGCAGAGCUCAACACAGCGUGGCAAAGUGGCUGUGGCUAGACUGCCUCUCUGGUUUCCUCGUCACUCAGCAGGGCAUCUCUGAGAGAAAUGCC [U52C A107U], 1.63.
To UACGUAGGUGGUUUUCCCCUGAUAGUGCUAAGGGGGCCUGGAAGUUUGGACCGGGCAGAGCUCCACACAGCGUGGCAAAGUGGCUGUGGCUAGACUGCCUCUCUGGAUUCCUCGUCACUCAGCAGGGCAUCUCUGAGAGAAAUGCC [U52C A64C] belongs 0.51.
To UACGUAGGUGGUUUUCCCCUGAUAGUGCUAAGGGGGCCUGGAAGUUUGGACCGGGCAGAGCUCAACACAGCGUGACAAAGUGGCUGUGGCUAGACUGCCUCUCUGGAUUCCUCGUCACUCAGCAGGGCAUCUCUGAGAGAAAUGCC [U52C G75A] belongs 0.9.
With UACGUAGGUGGUUUUCCCCUGAUAGUGCUAAGGGGGCCUGGAAGUUUGGACCGGGCAGAGCUCAACACAGCGUGGCAAAGUGGCUGUGGCUAGACUGCCUCUCUGGAUUCCUCGUCACUUAGCAGGGCAUCUCUGAGAGAAAUGCC [U52C C120U], the self-cleavage came out at 1.77.
Turning to UACGUAGGUGGUUUUCCCCUGAUAGUGCUAAGGGGGCCUGGAAGUUUGGACCGGGCAGAGCUCAACACAGCGUGGCAAAGUGGCUGUGGCUAGACUGGCUCUCUGGAUUCCUCGUCACUCAGCAGGGCAUCUCUGAGAGAAAUGCC [U52C C98G], the self-cleavage was 0.17.
UACGUAGGUGGUUUUCCCCUGAUAGUGCUAAGGGGGCCUGGAAGUUUGGACCGGGCAGAGCUCAACACAGCGUGGCAAAGUGGCUGUGGCUCGACUGCCUCUCUGGAUUCCUCGUCACUCAGCAGGGCAUCUCUGAGAGAAAUGCC [U52C A92C]: the self-cleavage was 0.
To UACGUAGGUGGUUUUCCCCUGAUAGUGCUAAGGGGGCCUGGAAGUUUGGACCGGGCAGAGCUCAACACAGCGUGGCAAAGUGGCUGUGGCUUGACUGCCUCUCUGGAUUCCUCGUCACUCAGCAGGGCAUCUCUGAGAGAAAUGCC [U52C A92U] belongs 0.52.

The values are drawn from the RNAGym collection of RNA variant scans (doi:10.7554/elife.90254).
